Values belong to the binder of their own block, whether it stands above or below them.
Legend:
hair proteins [1] = assay: ELISA on coated hair proteins, blocking 0.5% BSA, iMab (OD280 3.19) diluted 100 x, anti-VSV-HRP; background without iMab 0.095
skin proteins [2] = assay: ELISA on coated skin proteins, blocking 0.5% BSA, iMab (OD280 0.828) diluted 250 x, anti-VSV-HRP; background without iMab 0.484
skin proteins [3] = assay: ELISA on coated skin proteins, blocking Seablock, iMab (OD280 0.828) diluted 250 x, anti-VSV-HRP; background without iMab 0.131
hair proteins [4] = assay: ELISA on coated hair proteins, blocking 0.5% BSA, iMab (OD280 4.22) diluted 100 x, anti-VSV-HRP; background without iMab 0.095
skin proteins [5] = assay: ELISA on coated skin proteins, blocking 0.5% BSA, iMab (OD280 0.323) diluted 100 x, anti-VSV-HRP; background without iMab 0.484
skin proteins [6] = assay: ELISA on coated skin proteins, blocking Seablock, iMab (OD280 0.323) diluted 100 x, anti-VSV-HRP; background without iMab 0.131
hair proteins [7] = assay: ELISA on coated hair proteins, blocking 0.5% BSA, iMab (OD280 1.71) diluted 100 x, anti-VSV-HRP; background without iMab 0.095
skin proteins [8] = assay: ELISA on coated skin proteins, blocking 0.5% BSA, iMab (OD280 0.357) diluted 100 x, anti-VSV-HRP; background without iMab 0.484
skin proteins [9] = assay: ELISA on coated skin proteins, blocking Seablock, iMab (OD280 0.357) diluted 100 x, anti-VSV-HRP; background without iMab 0.131
[10] = biological target: bovine serum albumin (bovine) (UniProt P02769); assay: gel-shift, 2 mg/ml conjugate with 10 mg/ml BSA, 7.5% native PAA gel; Rf of the conjugate alone 0.66
Chain of bovine serum albumin (bovine) (P02769 25-607 limits assumed): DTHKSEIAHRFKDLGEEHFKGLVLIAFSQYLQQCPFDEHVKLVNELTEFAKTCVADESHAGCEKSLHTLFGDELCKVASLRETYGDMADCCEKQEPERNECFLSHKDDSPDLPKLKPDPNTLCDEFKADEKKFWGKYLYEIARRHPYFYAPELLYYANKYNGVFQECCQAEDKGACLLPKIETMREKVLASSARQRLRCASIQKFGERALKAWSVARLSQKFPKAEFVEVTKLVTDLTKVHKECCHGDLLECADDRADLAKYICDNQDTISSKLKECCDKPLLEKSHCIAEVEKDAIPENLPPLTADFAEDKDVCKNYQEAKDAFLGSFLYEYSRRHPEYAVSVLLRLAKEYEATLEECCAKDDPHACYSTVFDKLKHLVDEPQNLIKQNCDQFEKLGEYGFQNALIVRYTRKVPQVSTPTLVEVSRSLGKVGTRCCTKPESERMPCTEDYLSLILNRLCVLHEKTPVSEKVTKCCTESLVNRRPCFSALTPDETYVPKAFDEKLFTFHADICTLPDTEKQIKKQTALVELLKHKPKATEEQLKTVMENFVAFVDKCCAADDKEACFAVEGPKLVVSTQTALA

[11] = biological target: bovine serum albumin (bovine) (UniProt P02769); assay: gel-shift, 0.1 mg/ml conjugate with 10 mg/ml BSA, 7.5% native PAA gel, in situ peroxidase activity; Rf of the conjugate alone 0.31
skin proteins [12] = assay: ELISA on coated skin proteins, blocking 0.5% BSA, iMab (OD280 0.399) diluted 100 x, anti-VSV-HRP; background without iMab 0.187
skin proteins [13] = assay: ELISA on coated skin proteins, blocking Seablock, iMab (OD280 0.399) diluted 100 x, anti-VSV-HRP; background without iMab 0.084
hair proteins [14] = assay: ELISA on coated hair proteins, blocking 0.5% BSA, iMab (OD280 2.82) diluted 100 x, anti-VSV-HRP; background without iMab 0.095
skin proteins [15] = assay: ELISA on coated skin proteins, blocking 0.5% BSA, iMab (OD280 0.327) diluted 100 x, anti-VSV-HRP; background without iMab 0.484
skin proteins [16] = assay: ELISA on coated skin proteins, blocking Seablock, iMab (OD280 0.327) diluted 100 x, anti-VSV-HRP; background without iMab 0.131
skin proteins [17] = assay: ELISA on coated skin proteins, blocking 0.5% BSA, iMab (OD280 0.711) diluted 200 x, anti-VSV-HRP; background without iMab 0.484
skin proteins [18] = assay: ELISA on coated skin proteins, blocking Seablock, iMab (OD280 0.711) diluted 200 x, anti-VSV-HRP; background without iMab 0.131
hair proteins [19] = assay: ELISA on coated hair proteins, blocking 0.5% BSA, iMab (OD280 3.60) diluted 100 x, anti-VSV-HRP; background without iMab 0.095
skin proteins [20] = assay: ELISA on coated skin proteins, blocking 0.5% BSA, iMab (OD280 0.585) diluted 200 x, anti-VSV-HRP; background without iMab 0.484
skin proteins [21] = assay: ELISA on coated skin proteins, blocking Seablock, iMab (OD280 0.585) diluted 200 x, anti-VSV-HRP; background without iMab 0.131
hair proteins [22] = assay: ELISA on coated hair proteins, blocking 0.5% BSA, iMab (OD280 1.09) diluted 100 x, anti-VSV-HRP; background without iMab 0.095
hair proteins [23] = assay: ELISA on coated hair proteins, blocking 0.5% BSA, iMab (OD280 2.36) diluted 100 x, anti-VSV-HRP; background without iMab 0.095
[24] = biological target: ELK (3% skim milk powder solution); assay: ELISA, control well with ELK only, ~50 ng iMab per well, anti-VSV-HRP; urea purification
[25] = biological target: chicken lysozyme (chicken), P00698; assay: ELISA versus lysozyme, iMab dilution 1:10, before pH shock; conditions: remark: other sources report otherwise
Chain of chicken lysozyme (chicken), P00698 (P00698 19-147 limits assumed): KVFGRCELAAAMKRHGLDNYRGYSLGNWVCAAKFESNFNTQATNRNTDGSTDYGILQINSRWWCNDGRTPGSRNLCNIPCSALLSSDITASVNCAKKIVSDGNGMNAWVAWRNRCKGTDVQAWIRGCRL

[26] = biological target: chicken lysozyme (chicken), P00698; assay: ELISA versus lysozyme, iMab dilution 1:100, before pH shock; conditions: remark: other sources report otherwise
[27] = biological target: chicken lysozyme (chicken), P00698; assay: ELISA versus lysozyme, iMab dilution 1:1000, before pH shock; conditions: remark: other sources report otherwise
[28] = biological target: chicken lysozyme (chicken), P00698; assay: ELISA versus lysozyme, iMab dilution 1:10,000, before pH shock; conditions: remark: other sources report otherwise
[29] = biological target: ELK (3% skim milk powder solution); assay: ELISA, control well with ELK only, ~50 ng iMab per well, anti-VSV-HRP; purification by heat (60 C)
[30] = biological target: chicken lysozyme (chicken), P00698; assay: ELISA, well coated with lysozyme (100 ug/ml) and blocked with ELK, ~50 ng iMab per well, anti-VSV-HRP; urea purification; conditions: remark: other sources report otherwise
[31] = biological target: chicken lysozyme (chicken), P00698; assay: ELISA versus lysozyme, iMab dilution 1:10, after precipitation with potassium acetate pH 4.8 and redissolving in PBS pH 7.5; conditions: remark: other sources report otherwise
[32] = biological target: chicken lysozyme (chicken), P00698; assay: ELISA versus lysozyme, iMab dilution 1:100, after precipitation with potassium acetate pH 4.8 and redissolving in PBS pH 7.5; conditions: remark: other sources report otherwise
[33] = biological target: chicken lysozyme (chicken), P00698; assay: ELISA versus lysozyme, iMab dilution 1:1000, after precipitation with potassium acetate pH 4.8 and redissolving in PBS pH 7.5; conditions: remark: other sources report otherwise
[34] = biological target: chicken lysozyme (chicken), P00698; assay: ELISA versus lysozyme, iMab dilution 1:10,000, after precipitation with potassium acetate pH 4.8 and redissolving in PBS pH 7.5; conditions: remark: other sources report otherwise
[35] = biological target: chicken lysozyme (chicken), P00698; assay: ELISA, well coated with lysozyme (100 ug/ml) and blocked with ELK, ~50 ng iMab per well, anti-VSV-HRP; purification by heat (60 C); conditions: remark: other sources report otherwise

B4: TRITC labeled iMab142-xx-0002 (designed binder, not shown: small tags and cut ends)
chain: MNVKLVEKGGNFVENDDDLKLTCRAEGYTIGPYSMGWFRQAPNDDSTNVSCINMGGGITYYGDSVKERFDIRRDNASNTVTLSMDDLQPEDSAVYNCAADWWDGFTYGSTWYNPSSYDYRGQGTDVTVSS
modifications: TRITC covalently on primary amines, meaning the N-terminus and Lys side chains. Positions and number are not stated; labelled Lys is written K.
retardation factor (Rf) [10]: 0.66

B5: iMab142-xx-0002-HRP conjugate (protein, not shown: small tags and cut ends)
chain: MNVKLVEKGGNFVENDDDLKLTCRAEGYTIGPYSMGWFRQAPNDDSTNVSCINMGGGITYYGDSVKERFDIRRDNASNTVTLSMDDLQPEDSAVYNCAADWWDGFTYGSTWYNPSSYDYRGQGTDVTVSS
modifications: Amines (N-terminus and Lys) were thiolated with SATA, deacetylated, and coupled by thioether to maleimide-activated horseradish peroxidase. The sites and the iMab:HRP ratio of the product are not stated.
retardation factor (Rf) [11]: 0.31

B6: iMab142-xx-0032 (designed binder)
chain: MNVKLVEKGGNFVENDDDLKLTCRAEGYTIGPYSMGWFRQAPNDDSTNVSCINMGGGITYYGDSVKERFDIRRDNASNTVTLSMDDLQPEDSAEYNCAATLAPFSIATMYGGLLDTAFDSRGQGTDVTVSS
OD450 in Elisa (skin proteins [12]): 0.306 OD450 | OD450 in Elisa (skin proteins [13]): 0.088 OD450

B9: iMab143-xx-0029 (designed binder)
chain: MIKVYTDRENYGAVGSQVTLHCSASGYTIGPISFTWRYQPEGDRDAISIFHYNMGDGSIVIHNLDYSDNGSFTCAARFVDALYEPKSCTSRNYAYGNSSQVTLYVFE
OD450 in Elisa (hair proteins [19]): 0.203 OD450 | OD450 in Elisa (skin proteins [20]): 1.88 OD450 | OD450 in Elisa (skin proteins [21]): 0.212 OD450

B10: iMab142-xx-0038 (designed binder)
chain: NVKLVEKGGNFVENDDDLKLTCRAEGYTIGPYSMGWFRQAPNDDSTNVSCINMGGGITYYGDSVKERFDIRRDNASNTVTLSMDDLQPEDSAEYNCATTLAPFGIATMYGPLNPAAFESRGQGTDVTVSS
OD450 in Elisa (hair proteins [22]): 2.35 OD450

B11: iMab142-xx-0039 (designed binder)
chain: NVKLVEKGGNFVENDDDLKLTCRAEGYTIGPYSMGWFRQAPNDDSTNVSCINMGGGITYYGDSVKERFDIRRDNASNTVTLSMDDLQPEDSAEYNCAADYGRCSWLIRAYNYRGQGTDVTVSS
OD450 in Elisa (hair proteins [23]): 1.32 OD450

B12: iMab111 (designed binder)
chain: NVKLVCKGGNFVENDDDLKLTCRAEGYTIGPYCMGWFRQAPNDDSTNVATINMGGGITYYGDSVKERFDIRRDNASNTVTLSMDDLQPEDSAEYNCAGDSTIYASYYECGHGLSTGGYGYDSHYRCQGTDVTVSS
Absorbtion (450 nm) (absorbance at 450 nm) [24]: 0.043

B13: iMab116 (designed binder, not shown: small tags and cut ends)
chain: NVKLVEKGGNFVENDDDLKLTCRAEGYTIGPYCMGWFRQAPNDDSTNVATINMGGGITYYGDSVKERFDIRRDNASNTVTLSMDDLQPEDSAEYNGAGDSTIYGSYYECGHGLSTGGYGYDSHYRGQGTDVTVSS
Absorbtion (450 nm) (absorbance at 450 nm) [24]: 0.042

B14: iMab100 (designed binder, not shown: small tags and cut ends)
chain: NVKLVEKGGNFVENDDDLKLTCRAEGYTIGPYCMGWFRQAPNDDSTNVATINMGGGITYYGDSVKERFDIRRDNASNTVTLSMDDLQPEDSAEYNCAGDSTIYASYYECGHGLSTGGYGYDSHYRGQGTDVTVSS
Signal on Elisa [25]: 0.36 | Signal on Elisa [26]: 0.228 | Signal on Elisa [27]: 0.128 | Signal on Elisa [28]: 0.059 | Absorbtion (450 nm) (absorbance at 450 nm) [24]: 0.04 | Absorbtion (450 nm) (absorbance at 450 nm) [29]: 0.041 | Absorbtion (450 nm) (absorbance at 450 nm) [30]: 0.494 | Signal on Elisa [31]: 0.39 | Signal on Elisa [32]: 0.263 | Signal on Elisa [33]: 0.169 | Signal on Elisa [34]: 0.059 | Absorbtion (450 nm) (absorbance at 450 nm) [35]: 0.369

B15: iMab122 (designed binder, not shown: small tags and cut ends)
chain: NVKLVEKGGNFVENDDDLKLTCRASGRTFSSRTMGWFRQAPNDDSTNVATIRWNGGSTYYTNYGDSVKERFDIRVDQASNTVTLSMDDLQPEDSAEYNCAGTDIGDGWSGRYDYRGQGTDVTVSS
Absorbtion (450 nm) (absorbance at 450 nm) [24]: 0.051

Second part, the binder after the results:

OD450 in Elisa (hair proteins [1]): 0.442 OD450 | OD450 in Elisa (skin proteins [2]): 1.66 OD450 | OD450 in Elisa (skin proteins [3]): 0.29 OD450
B1: iMab143-xx-0033 (designed binder)
chain: MIKVYTDRENYGAVGSQVTLHCSASGYTIGPISFTWRYQPEGDRDAISIFHYNMGDGSIVIHNLDYSDNGSFTCAADLHGLGLRRISTYEYGNSSQVTLYVFE

OD450 in Elisa (hair proteins [4]): 0.262 OD450 | OD450 in Elisa (skin proteins [5]): 2.02 OD450 | OD450 in Elisa (skin proteins [6]): 0.56 OD450
B2: iMab143-xx-0030 (designed binder)
chain: MIKVYTDRENYGAVGSQVTLHCSASGYTIGPISFTWRYQPEGDRDAISIFHYNMGDGSIVIHNLDYSDNGSFTCAAVFAVVTVATKPDPRFYDYGNSSQVTLYVFEA

OD450 in Elisa (hair proteins [7]): 0.736 OD450 | OD450 in Elisa (skin proteins [8]): 2.23 OD450 | OD450 in Elisa (skin proteins [9]): 0.699 OD450
B3: iMab143-xx-0034 (designed binder)
chain: MIKVYTDRENYGAVGSQVTLHCSASGYTIGPISFTWRYQPEGDRDAISIFHYNMGDGSIVIHNLDYSDNGSFTCAAYRIRSGGYYCFLTYLMDYGNSSQVTLYVFE

OD450 in Elisa (hair proteins [14]): 1.05 OD450 | OD450 in Elisa (skin proteins [15]): 2.62 OD450 | OD450 in Elisa (skin proteins [16]): 2.88 OD450
B7: iMab143-xx-0031 (designed binder)
chain: MIKVYTDRENYGAVGSQVTLHCSASGYTIGPISFTWRYQPEGDRDAISIFHYNMGDGSIVIHNLDYSDNGSFTCAATTPFIDYDPNDICPSWYEYDYGNSSQVTLYVFE

OD450 in Elisa (skin proteins [17]): 0.824 OD450 | OD450 in Elisa (skin proteins [18]): 1.79 OD450
B8: iMab143-xx-0035 (designed binder)
chain: MIKVYTDRENYGAVGSQVTLHCSASGYTIGPISFTWRYQPEGDRDAISIFHYNMGDGSIVIHNLDYSDNGSFTCAAGADCSDYGIMYGMDYGNSSQVTLYVFE
